Laboratory results as given in the supplement of paper PMC10567573.

B1: KCNA1 (parent)
chain: LKASMRELGLLIFFLFIGVILFSS

Variants of: B1
Assay: protein stability index of a GFP-peptide fusion (GPS, HEK-293T) (PSI 1-6); higher = more stable
Conditions: c terminus: a fixed tail appended
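Further: lentivirally expressed fusions sorted by FACS into six bins by GFP to DsRed ratio, PSI derived from sequencing read proportions per bin multiplied by bin number.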

In order of rising protein stability index:
1. F13M  1.32
2. F16R  1.32
3. L15I  1.55
4. V19L  1.59
5. F13V  1.63
6. F16D  1.64
7. V19C  1.65
8. S23C  1.67
9. L15M  1.7
10. G18A  1.77
11. L15F  1.79
12. F22V  1.8
13. F22G  1.81
14. G18L  1.82
15. S23I  1.85
16. G18P  1.86
17. V19Y  1.86
18. G18D  1.87
19. L21K  1.88
20. I17E  1.91
21. L21Y  1.91
22. F22Y  1.93
23. F14C  1.95
24. I17L  1.95
25. I20L  1.96
26. V19F  1.99
27. L15R  2.01
28. I20W  2.02
29. F13R  2.03
30. S23G  2.03
31. F16V  2.07
32. V19W  2.1
33. I20S  2.1
34. L15H  2.11
35. L21V  2.12
36. F16A  2.14
37. S23F  2.15
38. S23H  2.15
39. F13L  2.16
40. F16M  2.17
41. L21I  2.17
42. S23A  2.19
43. G18M  2.2
44. G18W  2.21
45. I17Y  2.24
46. F22R  2.24
47. F16I  2.25
48. F22L  2.25
49. V19I  2.27
50. L15P  2.29
51. I17D  2.29
52. I17S  2.3
53. I20F  2.32
54. L21M  2.32
55. V19N  2.33
56. F22A  2.33
57. F16K  2.35
58. L21W  2.35
59. L15C  2.37
60. F16W  2.38
61. I20E  2.38
62. I20T  2.4
63. F14R  2.41
64. L21C  2.43
65. F22I  2.43
66. L15A  2.44
67. G18K  2.44
68. F14M  2.48
69. I17T  2.48
70. V19P  2.51
71. V19M  2.52
72. L15G  2.53
73. L15K  2.54
74. L15Y  2.55
75. F16S  2.55
76. I17C  2.56
77. V19A  2.58
78. F22E  2.63
79. L21N  2.64
80. F22P  2.64
81. F14K  2.65
82. V19D  2.65
83. I20Y  2.65
84. V19R  2.66
85. L15S  2.67
86. L21T  2.68
87. L15W  2.7
88. I17R  2.71
89. F14E  2.74
90. F14I  2.74
91. I17V  2.74
92. G18Q  2.75
93. I20C  2.75
94. F22W  2.75
95. S23D  2.75
96. F16T  2.77
97. I17P  2.77
98. F14T  2.79
99. I17F  2.79
100. F22K  2.81
101. F14V  2.82
102. I17Q  2.82
103. I17A  2.83
104. I17K  2.83
105. F22D  2.83
106. F14N  2.85
107. I17H  2.85
108. V19G  2.85
109. L21P  2.86
110. I17G  2.88
111. I20Q  2.9
112. F16L  2.91
113. F14D  2.93
114. F22S  2.95
115. F16P  2.96
116. F14L  2.98
117. L21H  2.98
118. F22M  2.98
119. F14Y  3.01
120. G18N  3.02
121. L21F  3.04
122. F16G  3.06
123. V19Q  3.09
124. F16E  3.14
125. G18V  3.15
126. G18Y  3.18
127. I20K  3.18
128. L21G  3.19
129. G18T  3.2
130. L21R  3.21
131. I20D  3.22
132. L21Q  3.29
133. I20A  3.3
134. L15N  3.33
135. V19T  3.34
136. F16Y  3.35
137. I17M  3.35
138. F22N  3.37
139. L21D  3.39
140. F13N  3.41
141. F14H  3.41
142. I20V  3.45
143. L21S  3.5
144. I20M  3.52
145. F13S  3.56
146. L15T  3.59
147. F13P  3.61
148. G18C  3.63
149. F14S  3.66
150. F22Q  3.69
151. F22T  3.72
152. G18S  3.74
153. F22H  3.76
154. F14W  3.78
155. F16H  3.79
156. I17W  3.85
157. F14G  3.88
158. G18F  3.9
159. V19S  3.99
160. V19H  4.02
161. I17N  4.03
162. F14P  4.04
163. F13Y  4.13
164. F14A  4.15
165. F13Q  4.29
166. G18I  4.5
167. V19K  4.72
